Reference: patent US7479478B2, “Human parathyroid hormone modifications, preparation and use” (The General Hospital Corporation, priority 1998, dated 2009)
No end group written: not given here.

Columns and labels:
Format in all cases: cell-based
human PTH-1 receptors [1] = target: T1, human PTH-1 receptors (Homo sapiens, UniProt Q03431); experiment: PLC activation (IP3 formation) in HKRK B7 cells; settings: HKRK B7 cells; up to 1000 nM or 10 μM
T1 construct: expressed in transfected cells
T1 sequence (Q03431 27-593): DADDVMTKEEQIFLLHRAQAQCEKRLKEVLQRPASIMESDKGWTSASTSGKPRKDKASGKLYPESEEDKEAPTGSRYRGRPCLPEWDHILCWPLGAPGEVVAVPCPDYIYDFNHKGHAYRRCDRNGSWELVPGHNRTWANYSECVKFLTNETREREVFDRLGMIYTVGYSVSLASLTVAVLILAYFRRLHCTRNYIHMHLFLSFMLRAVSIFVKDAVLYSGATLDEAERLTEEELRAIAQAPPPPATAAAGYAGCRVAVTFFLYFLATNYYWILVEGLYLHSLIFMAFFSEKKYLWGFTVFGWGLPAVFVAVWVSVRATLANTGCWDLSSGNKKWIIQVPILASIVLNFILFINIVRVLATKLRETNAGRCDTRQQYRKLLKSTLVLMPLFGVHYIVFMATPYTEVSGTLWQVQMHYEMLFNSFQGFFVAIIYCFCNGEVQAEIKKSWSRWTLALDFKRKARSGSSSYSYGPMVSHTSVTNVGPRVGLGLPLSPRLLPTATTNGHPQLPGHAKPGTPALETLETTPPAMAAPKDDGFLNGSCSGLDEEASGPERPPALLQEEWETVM
Experimental: (§1) HKRK B7 or EW5 cells (32), subclones of LLC-PKI renal epithelial cells that stably express human or rat PTH-1 receptors (950,000 and 320,000 receptors/cell, respectively), were maintained under 5% CO2 in air in Dulbecco's modified essential medium containing 7% fetal bovine serum (FBS) and 1% penicillin/streptomycin (GIBCO-BRL, Grand Island, N.Y.). HEK-293 and COS-7 cells were cultured similarly, except that 10% FBS was used in the medium. Cells were seeded into 24-well plates two days before assay at a density of 2-2.5×10^5 cells/well (HKRK B7 or EW 5 cells) or 6×10^5 cells/well (in 6-well plates) (HEK-293 cells). In experiments involving HEK-293 cells, DNA transfections were performed 24 hr after plating and inositol radiolabel was added 24 hr thereafter (see below). COS-7 cell transfections were performed as previously described (Gardella, T. J., et al., Endocrinology 132(5):2024-2030 (1993))
PLC was activated by PTH agonists in the presence of 30 mM LiCl at 37° C. for 30 min after 16 hr of labeling with [^3H]myo-inositol (3 uCi/ml) in serum-free medium containing 0.1% bovine serum albumin. The reactions were stopped by rapid aspiration and addition of cold 5% TCA. Water-soluble radiolabeled inositol trisphosphate (IP3) was isolated after ether extraction by ion-exchange chromatography (Guo, J., et al., Endocrinology 136(9):3884-3891 (1995)). In experiments involving HEK 293 cells, cells previously transfected with human PTHR cDNA (in the pcDNA1 expression vector HKRK) using Lipofectamine (Gibco BRL) were labeled with [^3H]myo-inositol and assayed as described above, except that total water-soluble [^3H]inositol polyphosphates were collected as a single fraction from the ion-exchange columns.

rat PTH-1 receptors = target: T2, rat PTH-1 receptors (Rattus norvegicus, UniProt P25961); experiment: PLC activation in COS-7 cells expressing rat PTH-1 receptors; settings: up to 1000 nM
T2 construct: expressed in transfected cells
T2 sequence (P25961 27-591): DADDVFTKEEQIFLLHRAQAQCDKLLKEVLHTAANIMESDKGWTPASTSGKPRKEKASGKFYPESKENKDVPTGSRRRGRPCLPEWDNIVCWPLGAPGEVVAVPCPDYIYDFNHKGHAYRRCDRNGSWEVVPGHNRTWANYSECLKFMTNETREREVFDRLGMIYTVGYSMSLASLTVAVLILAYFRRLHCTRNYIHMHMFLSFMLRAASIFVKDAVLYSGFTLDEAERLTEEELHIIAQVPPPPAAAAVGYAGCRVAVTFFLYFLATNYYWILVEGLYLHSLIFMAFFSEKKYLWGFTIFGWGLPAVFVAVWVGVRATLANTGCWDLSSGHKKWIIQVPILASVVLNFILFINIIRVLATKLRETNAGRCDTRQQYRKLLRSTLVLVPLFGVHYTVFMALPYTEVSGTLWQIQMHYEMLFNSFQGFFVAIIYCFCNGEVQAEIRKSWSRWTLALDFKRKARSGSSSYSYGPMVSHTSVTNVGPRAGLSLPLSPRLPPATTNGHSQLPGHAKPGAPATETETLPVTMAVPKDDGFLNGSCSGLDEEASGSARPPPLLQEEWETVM
Experimental: as §1
(§2) PLC was activated by PTH agonists in the presence of 30 mM LiCl at 37° C. for 30 min after 16 hr of labeling with [^3H]myo-inositol (3 uCi/ml) in serum-free medium containing 0.1% bovine serum albumin. The reactions were stopped by rapid aspiration and addition of cold 5% TCA. Water-soluble radiolabeled inositol trisphosphate (IP3) was isolated after ether extraction by ion-exchange chromatography (Guo, J., et al., Endocrinology 136(9):3884-3891 (1995)). […]

human PTH-1 receptors [2] = target: T1, human PTH-1 receptors; experiment: PLC activation in COS-7 cells expressing human PTH-1 receptors; settings: up to 1000 nM
Experimental: as §1, §2

Human PTH-(3-34): N-truncated human PTH peptide lacking Ser^1-Val^2 (SEIQLMHNLGKHLNSMERVEWLRKKLQDVHNF-NH2; UniProt P01270 34-65, looked up, fragment)
did not activate PLC: PLC activation (IP3 formation), result in words (human PTH-1 receptors [1]) | PLC activation, result in words (rat PTH-1 receptors) | PLC activation, result in words (human PTH-1 receptors [2])
